The target of one assay is Hsp70 Alexa Fluor 488 (UniProt P0DMV8). The experiment in a line: cross-linking.
The target in assay [1] is Bcl-2 associated athanogene 3 (Bag3) (UniProt O95817). The experiment in a line: flow cytometry protein interaction assay. A general note: A flow cytometer gives signals particle by particle.
For assay [2] the target is unchanged. The experiment in a line: cross-linking.
Assay [3] has as its target Bag3 (Homo sapiens) (UniProt O95817). Kind of assay: ITC. The settings on record: cited from earlier work.
Assay [4] has the same target. The experiment in a line: APCE. The settings on record: cited from earlier work.
The next assay concerns the target Hsp90 (Homo sapiens) (UniProt P07900). Kind of assay: size exclusion chromatography. To be noted: cited from earlier work. A general note: In gel filtration, larger molecules generally elute earlier.

This is an account of results in PMC5111828.

As usually defined, the Kd is the constant that tells how readily two partners part at equilibrium. By Ki is commonly meant the dissociation constant of the complex between target and ligand, obtained from inhibition or displacement.

Hsp70, sequence (P0DMV8 2-641): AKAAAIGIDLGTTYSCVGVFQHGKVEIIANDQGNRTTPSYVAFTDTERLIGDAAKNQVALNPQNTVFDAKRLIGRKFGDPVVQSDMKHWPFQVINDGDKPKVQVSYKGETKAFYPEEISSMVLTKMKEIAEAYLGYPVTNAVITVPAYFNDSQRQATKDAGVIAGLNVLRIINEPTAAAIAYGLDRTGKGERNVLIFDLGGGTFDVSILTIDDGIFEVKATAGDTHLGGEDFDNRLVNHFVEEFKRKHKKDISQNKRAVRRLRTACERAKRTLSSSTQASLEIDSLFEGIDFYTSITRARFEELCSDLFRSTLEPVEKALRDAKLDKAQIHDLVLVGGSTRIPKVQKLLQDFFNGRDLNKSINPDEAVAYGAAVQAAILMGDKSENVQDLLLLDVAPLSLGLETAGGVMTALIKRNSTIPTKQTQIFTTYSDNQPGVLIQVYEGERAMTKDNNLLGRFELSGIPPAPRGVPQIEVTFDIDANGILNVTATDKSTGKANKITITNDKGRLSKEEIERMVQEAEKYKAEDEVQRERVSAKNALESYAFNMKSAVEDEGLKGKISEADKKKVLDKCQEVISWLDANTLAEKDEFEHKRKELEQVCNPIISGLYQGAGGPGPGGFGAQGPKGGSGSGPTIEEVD

Take “Bcl-2 associated athanogene 3 (Bag3) (from UniProt O95817 1-575) (natural protein)”: the Kd in the assay with Hsp70 Alexa Fluor 488 is 0.025 µM. In assay [1], “unlabeled Hsp70 (Wild-Type) (from UniProt P0DMV8 1-641) (natural protein)” showed a Ki of 0.015 µM. Take “Hsp70 R,R 258,262 A,A (from UniProt P0DMV8 1-641) (natural protein)”: the Ki in assay [2] is 0.4 µM. As for Hsp70 (from UniProt P0DMV8), the Kd in the assay with Bag3 (Homo sapiens) [3] is 0.015 µM; with Bag3 (Homo sapiens) [4], 0.023 µM. “Hsp70 E,D 283, 292 A,A (from UniProt P0DMV8 1-641) (natural protein)” came in with a Ki in assay [2] of 0.16 µM.

Consider Hsp90 (from UniProt P07900), for which the Kd with Hsp90 (Homo sapiens) is 0.06 µM.
